Measurements from patent publication US20220119534A1 (DRAGONFLY THERAPEUTICS, published 2022).
Several values for one entry are separate records, joined by “and”; a condition that tells them apart may be missing. Equal values may be shown once.

Key:
[1] = target: T1, Human CD16a F158 (FcγRIIIa F158) (human, UniProt P08637 17-208, biotinylated); test: SPR 25C, receptor captured, steady-state fit
T1 construct: Bought recombinant receptor; also called hFcγRIIIa F158

[2] = target: T2, Human CLEC12A expressed on cells (Ba/F3-hCLEC12A, PL21, HL60) (human, UniProt Q5QGZ9 1-265); test: flow cytometry on HL-60 AML cells
T2 construct: Ba/F3 cells transduced with human CLEC12A; PL21 and HL60 AML lines express it endogenously; also called cell surface expressed CLEC12A
T2 sequence: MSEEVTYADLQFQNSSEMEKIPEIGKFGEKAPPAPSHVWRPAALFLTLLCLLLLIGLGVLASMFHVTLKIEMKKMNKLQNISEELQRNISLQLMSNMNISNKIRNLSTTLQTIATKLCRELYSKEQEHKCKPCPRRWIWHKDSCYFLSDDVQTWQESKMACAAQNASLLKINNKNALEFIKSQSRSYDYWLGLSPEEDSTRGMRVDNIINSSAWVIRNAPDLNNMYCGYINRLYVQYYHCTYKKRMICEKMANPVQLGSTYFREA

[3] = target: T3, mFc-hNKG2D (recombinant mFc-tagged human NKG2D dimer) (human, UniProt P26718 73-216); test: SPR; control sample
T3 construct: extracellular domain; Made in house; not shown: mouse Fc tag
T3 sequence (looked up): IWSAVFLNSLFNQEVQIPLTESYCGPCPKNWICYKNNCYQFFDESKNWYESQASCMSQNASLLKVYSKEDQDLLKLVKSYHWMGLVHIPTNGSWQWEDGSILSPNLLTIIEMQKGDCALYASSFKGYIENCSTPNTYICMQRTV

[4] = target: T4, Human CD16a V158 (FcγRIIIa V158) (human, UniProt P08637 17-208, biotinylated); test: SPR; control sample
T4 construct: Bought recombinant receptor; also called hCD16aV; hFcγRIIIa V158
T4 sequence (P08637 17-208 F176V limits assumed): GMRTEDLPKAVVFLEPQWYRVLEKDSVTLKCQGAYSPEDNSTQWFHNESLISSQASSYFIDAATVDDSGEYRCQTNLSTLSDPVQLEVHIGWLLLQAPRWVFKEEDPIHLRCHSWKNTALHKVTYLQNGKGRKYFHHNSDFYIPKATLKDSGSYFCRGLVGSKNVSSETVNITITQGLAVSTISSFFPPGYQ

[5] = target: T1, Human CD16a F158 (FcγRIIIa F158); test: SPR, summary of FcγR affinities
[6] = target: T4, Human CD16a V158 (FcγRIIIa V158); test: SPR 25C, average
[7] = target: T5, Human CLEC12A-His (recombinant, K244 WT) (human, UniProt Q5QGZ9 65-265); test: SPR, two-state fit; control sample
T5 construct: Made in house (Dragonfly Tx); also called hCLEC12A; hCLEC12A-His; not shown: His tag
T5 sequence: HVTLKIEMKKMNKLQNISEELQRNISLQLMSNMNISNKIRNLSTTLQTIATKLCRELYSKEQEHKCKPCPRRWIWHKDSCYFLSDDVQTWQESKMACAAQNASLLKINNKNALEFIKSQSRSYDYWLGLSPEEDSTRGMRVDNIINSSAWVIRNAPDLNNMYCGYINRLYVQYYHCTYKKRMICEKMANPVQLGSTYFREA

[8] = target: T5, Human CLEC12A-His (recombinant, K244 WT); test: SPR, untreated CLEC12A, two-state fit (kd1)

T1 sequence (P08637 17-208 limits assumed): as the sequence (P08637 17-208 F176V limits assumed) above, with V160F counted along it

Kd [1]: 1250 nM and 1280 nM and 1300 nM | EC50 [2]: 0.74 nM | Kd [3]: 881 nM | koff [3]: 0.143 s⁻¹ | kon [3]: 162000 M⁻¹ s⁻¹ | Kd [4]: 333 nM | koff [4]: 0.0277 s⁻¹ | kon [4]: 83100 M⁻¹ s⁻¹ | Kd [5]: 1270 nM | Kd [6]: 333 nM | koff [6]: 0.0277 s⁻¹ | kon [6]: 83100 M⁻¹ s⁻¹ | Kd [7]: 1 nM | koff [8]: 0.0398 s⁻¹
B1: AB0089 TriNKET (bispecific antibody, human IgG1, kappa)
chain: QLQLQESGPGLVKPSETLSLTCTVSGFSLTNYGLHWIRQPPGKCLEWIGVIWVGGATDYNPSLKSRVTISVDTSKNQFSLKLSSVQAADTAVYYCAKGDYGDTLDYWGQGTLVTVSSGGGGSGGGGSGGGGSGGGGSDIQMTQSPSSLSASVGDRVTITCHASQNINFWLSWYQQKPGKAPKLLIYEASNLHTGVPSRFSGSGSGTDFTLTISSLQPEDFATYYCQQSHSYPLTFGCGTKLEIKGSDKTHTCPPCPAPELLGGPSVFLFPPKPKDTLMISRTPEVTCVVVDVSHEDPEVKFNWYVDGVEVHNAKTKPREEQYNSTYRVVSVLTVLHQDWLNGKEYKCKVSNKALPAPIEKTISKAKGQPREPRVYTLPPCRDELTKNQVSLTCLVKGFYPSDIAVEWESNGQPENNYKTTPPVLVSDGSFTLYSKLTVDKSRWQQGNVFSCSVMHEALHNHYTQKSLSLSPG
heavy: EVQLVESGGGLVKPGGSLRLSCAASGFTFSSYSMNWVRQAPGKGLEWVSSISSSSSYIYYADSVKGRFTISRDNAKNSLYLQMNSLRAEDTAVYYCARGAPIGAAAGWFDPWGQGTLVTVSSASTKGPSVFPLAPSSKSTSGGTAALGCLVKDYFPEPVTVSWNSGALTSGVHTFPAVLQSSGLYSLSSVVTVPSSSLGTQTYICNVNHKPSNTKVDKKVEPKSCDKTHTCPPCPAPELLGGPSVFLFPPKPKDTLMISRTPEVTCVVVDVSHEDPEVKFNWYVDGVEVHNAKTKPREEQYNSTYRVVSVLTVLHQDWLNGKEYKCKVSNKALPAPIEKTISKAKGQPREPQVCTLPPSRDELTENQVSLTCLVKGFYPSDIAVEWESNGQPENNYKTTPPVLDSDGSFFLYSWLTVDKSRWQQGNVFSCSVMHEALHNHYTQKSLSLSPG
light: DIQMTQSPSSVSASVGDRVTITCRASQGISSWLAWYQQKPGKAPKLLIYAASSLQSGVPSRFSGSGSGTDFTLTISSLQPEDFATYYCQQGVSFPRTFGGGTKVEIKRTVAAPSVFIFPPSDEQLKSGTASVVCLLNNFYPREAKVQWKVDNALQSGNSQESVTEQDSKDSTYSLSSTLTLSKADYEKHKVYACEVTHQGLSSPVTKSFNRGEC
notes: F3' format heterodimer of three chains; human IgG1 Fc with EW-RVT and Y349C/S354C mutations; also called AB0089 Lot AB0089-002; CLEC12A TriNKET AB0089
